# Laboratory results reported in PMC6222646, “HIV-1 Integrase-Targeted Short Peptides Derived from a Viral Protein R Sequence” (Molecules : A Journal of Synthetic Chemistry and Natural …, 2018).
# Molecular target: HIV-1 integrase (IN) (HIV-1)
# Assay: not given
Substance,3'-P IC50 (in vitro IN 3'-processing assay; data not shown) [µM],ST IC50 (in vitro IN strand transfer assay; data not shown) [µM]
Vpr (69–75) peptide with the amino-terminal Phe (Vpr69) replaced with Glu (from UniProt P12520 69-75),> 111,> 111

# Molecular target: HIV-1 integrase (IN) (HIV-1)
# Assay: not given
# Remark: another data set of the same source
Substance,3'-P IC50 (in vitro IN 3'-processing assay) [µM],ST IC50 (in vitro IN strand transfer assay) [µM]
peptide 1a (FIHFRIG),17.6,1.3
peptide 2a (FIHFRIA),> 111,34.7
peptide 2b (FIHFRIA-amide),> 111,60.6
peptide 2c (Ac-FIHFRIA-amide),74.5,30.4
peptide 3a (FIHFRAG),66.5,22.4
peptide 3b (FIHFRAG-amide),> 111,> 111
peptide 3c (Ac-FIHFRAG-amide),208,28
peptide 4a (FIHFAIG),> 111,> 111
peptide 4b (FIHFAIG-amide),> 111,> 111
peptide 4c (Ac-FIHFAIG-amide),> 333,81
peptide 5a (FIHARIG),> 111,46.6
peptide 5b (FIHARIG-amide),> 111,> 111
peptide 5c (Ac-FIHARIG-amide),> 333,117
peptide 6a (FIAFRIG),17.4,6.7
peptide 6b (FIAFRIG-amide),95.4,35
peptide 6c (Ac-FIAFRIG-amide),94,3.5
peptide 7a (FAHFRIG),> 111,73.5
peptide 7b (FAHFRIG-amide),> 111,> 111
peptide 7c (Ac-FAHFRIG-amide),> 333,127
peptide 8a (AIHFRIG),86.3,22.7
peptide 8b (AIHFRIG-amide),> 111,> 111
peptide 8c (Ac-AIHFRIG-amide),> 333,46
peptide 9a (FIHFRBG),20,4.3
peptide 10a (FIHFBIG),> 333,48
peptide 11a (FIHBRIG),34,4.2
peptide 12a (FIBFRIG),6.5,2.2
peptide 13a (FBHFRIG),37,20
peptide 14a (BIHFRIG),7.2,2.1
peptide 15 (Biotin-linker-BIHFRIG),32,2.3

# Molecular target: HIV-1 integrase (IN) (HIV-1)
# Assay: cross-linking
row,Substance,stoichiometry N
1,peptide 15 (Biotin-linker-BIHFRIG),1
